Values of other authors as cited in article PMC2847397.

Target: Asp408 (UniProt position 408, GLLVDDAIVVV)
Assay: chemical modification

Substance: Multidrug efflux pump subunit AcrB (RND transporter) (Escherichia coli)
- pKa: 7.4
